Where a chain is given by its changes, count along the chain named.

From US10654939 (BEIJING MABWORKS BIOTECH, dated 2020) come the findings set out here.

To fix the notation:
T1: recombinant rhesus CD40 (ECD)-hFc (rhesus monkey, UniProt P25942 21-193 (human entry))
T1 construct: Bought protein; also called rhCD40(ECd)-hFc; monkey CD40 (ECD)-hFc
T1 chain: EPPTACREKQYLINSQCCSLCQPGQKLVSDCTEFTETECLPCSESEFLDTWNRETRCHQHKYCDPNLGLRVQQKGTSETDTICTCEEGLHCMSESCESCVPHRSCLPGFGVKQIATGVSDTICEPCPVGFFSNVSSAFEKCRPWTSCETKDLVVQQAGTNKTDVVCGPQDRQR

T2: rhesus CD40 expressed on HEK293A cells (rhesus monkey, UniProt P25942 21-277 (human entry))
T2 construct: also called HEK293A/rhesusCD40
T2 chain: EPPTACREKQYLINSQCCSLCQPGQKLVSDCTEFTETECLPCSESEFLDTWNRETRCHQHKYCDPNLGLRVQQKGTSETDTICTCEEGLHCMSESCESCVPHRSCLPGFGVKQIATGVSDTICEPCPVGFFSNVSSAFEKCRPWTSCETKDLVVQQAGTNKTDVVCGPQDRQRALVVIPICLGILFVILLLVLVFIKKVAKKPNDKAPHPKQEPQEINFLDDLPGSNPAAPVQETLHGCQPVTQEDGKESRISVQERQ

B1: 7B4 (mouse monoclonal antibody) (antibody, V domains shown)
VH: EVQLQESGPGLVKPSQSLSLTCSVTGYSITTNYYWNWIRQFPGNKLEWMGYIKYDGSNNYNPSLKNRISITRDTSKNQFFLKLNSVTTEDTATYYCARLDYWGQGTSVTVSS
VL: DIVLTQSPLSLPVSLGDQASISCRSSQSLENSNGNTFLNWFLQKPGQSPQLLIYKVSNRFSGVLDRFSGTGSGTDFTLTISRVEAEDLGVYFCLQVTHVPFTFGSGTKLEIK
B2: 16A6 (mouse monoclonal antibody) (antibody, V domains shown)
VH: B1 VH with Q5E, E6Q, Y34H
VL: B1 VL with P8T, P12S, F76L
B3: 13A2 (mouse monoclonal antibody) (antibody, V domains shown)
VH: B1 VH with Q3K, Q5E, E6Q, K53N
VL: B1 VL with L4M
B4: 142F7 (mouse monoclonal antibody) (antibody, V domains shown)
VH: EVQLEQSGAELVRPGTSVKVSCKASGYAFTNYLIEWGIQRPGQGLEWIGVINPGTGGTNYNEKFKDKATLTTDKSSSTAYMQLSSLTSDDSAVYFCARGGSGFAYWGQGTLVTVSA
VL: DIVLTQTTSSLSASLGDRVTISCRASQDINNYLNWYQQKPDGTVKLLIYYTSRLHSGVPSRFSGSGSGTDYSLTISNLEQEDIATYFCQQGNTLPWTFGGGTKLEIK
B5: 77D9 (mouse monoclonal antibody) (antibody, V domains shown)
VH: QVKLEESGGGLVKPGGSLKLSCAASGFTFRNYAMSWVRQSPGERLEWVAEVSGSGYYTYYPDTVTGRFTISRDNANNTLYLEVSSLRSEDTAMYYCTSRAYWGQGTLVTVSA
VL: IVMTQSPTLSLPVSLGDQASISCRSSQSIVLTNGNTYLEWYLQRPGQSPKLLIYKVSNRFSGVPDRFSGSGSGTDFTLKISRVEAEDLGVYYCFQGSHVPYTFGGGTKLEIK
B6: 92F6 (mouse monoclonal antibody) (antibody, V domains shown)
VH: QVQLEQSGAEVVKPGASVKVSCTASGFNIKDTYMHWVKQRPEQGLEWIGRIDPANGNTNYDPKFQGKATITADTSSNTGYLQLSSLTSEDTAVYYCSRWGYDWYFDVWGAGTSVTVSS
VL: DIVITQSTAIMSASPGEKVTITCSASSSVSYIHWFQQKPGTSPKLWIYTTANLASGVPARFSGSGSGTSYSLTISRMEAEDAATYYCQQRSNYPFTFGSGTKLEIK
B7: 29A10 (mouse monoclonal antibody) (antibody, V domains shown)
VH: QVKLEQSGGGLVKPGGSLKLSCAASGFTFSHYYMYWVRQTPEKRLEWVATISDAGSYTYYSDSVKGRFTISRDNAKNNLYLQMSSLKSDDTAMYFCARTYYRGDGGYWFFDVWGAGTAVTVSS
VL: DIVITQSTSSLAVSVGEKVTMSCESSQSLLYSSNQKNYLAWYQQKPGQSPKLLIYWASTRESGVPDRFTASGSGTDFTLTISSVKAEDLAVYYCQQYYRSPLTFGAGTKLELK
B8: 50F6 (mouse monoclonal antibody) (antibody, V domains shown)
VH: QVQLEQSGDDLVKPGASVKLSCKASGYTFTTYWINWIKQRPGQGLEWIGRISPGSGSTHYNEMFKGKATLTVDTSSSTAYIQLSSLSSEDSAVYFCTRNDYWGQGTTLTVSS
VL: DIVLTQSPLSLPVSLGDQASISCRSSQSIVNSNGNTYLEWYLQKPGQSPKLLIYKVSNRFSGVPDRFSGSGSGTDFTLKISRVEAEDLGVYYCFQGSHVPLTFGAGTKLELK

T3 sequence (P27512 20-289 limits assumed): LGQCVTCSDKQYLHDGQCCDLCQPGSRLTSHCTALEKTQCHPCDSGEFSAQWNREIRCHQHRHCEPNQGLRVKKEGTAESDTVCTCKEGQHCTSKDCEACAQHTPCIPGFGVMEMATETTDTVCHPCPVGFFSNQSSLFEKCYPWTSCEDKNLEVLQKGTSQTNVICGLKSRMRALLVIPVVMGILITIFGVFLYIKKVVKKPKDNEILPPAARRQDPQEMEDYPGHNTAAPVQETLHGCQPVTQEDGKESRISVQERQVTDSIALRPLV
T5 sequence (P25942 21-277 limits assumed): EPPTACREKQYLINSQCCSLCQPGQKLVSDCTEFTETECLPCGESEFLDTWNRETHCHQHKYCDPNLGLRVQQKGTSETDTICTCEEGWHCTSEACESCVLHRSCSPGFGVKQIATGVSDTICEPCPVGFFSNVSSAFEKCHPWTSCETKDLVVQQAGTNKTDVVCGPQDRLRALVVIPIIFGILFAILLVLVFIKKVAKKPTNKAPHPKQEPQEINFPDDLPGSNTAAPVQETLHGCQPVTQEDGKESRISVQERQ
T6 sequence (P27512 20-193): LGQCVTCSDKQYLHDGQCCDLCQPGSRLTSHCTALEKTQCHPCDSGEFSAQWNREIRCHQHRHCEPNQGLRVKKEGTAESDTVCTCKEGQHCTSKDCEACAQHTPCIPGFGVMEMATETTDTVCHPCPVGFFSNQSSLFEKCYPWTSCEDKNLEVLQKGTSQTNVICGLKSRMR

The first assay has as its target T3, mouse CD40 expressed on HEK293A cells (mouse, UniProt P27512 20-289).
T3 construct: also called HEK293A/mouseCD40
In words: FACS, HEK293A/mouseCD40 cells.
In the case of B1, the binding result was “no binding”.

As for B2, the binding result is “no binding”.

With B3, the binding result is “no binding”.

Regarding B4, the binding result is “no binding”.

As to B5, the binding result is on record as “no binding”.

On to B6, for which the binding result was “no binding”.

Turning to B7, the binding result is on record as “no binding”.

In the case of B8, the binding result is “no binding”.

Another assay concerns the target T1, recombinant rhesus CD40 (ECD)-hFc. Kind of assay: ELISA, rhCD40(ECD)-hFc coated. The method, then:
(§1) ELISA plates were coated with 500 ng/ml human CD40 (ECD)-his (Sino Biological, CN, Cat #: 10774-H08H) at 4° C. overnight. The wells were blocked with 200 μl of blocking buffer (PBS containing 1% BSA, 1% goat serum, and 0.05% Tween 20) for 2 hours at room temperature, and then 100 μl of serially diluted anti-CD40 antibodies (starting from 40000 ng/ml) were added to each well and incubated for 1 hour at RT. Plates were washed for 3 times with PBST (PBS+0.05% Tween 20), added with Goat-anti-mouse IgG-HRP (Simga, US, Cat #: A9309-1 ml) diluted 5000×, and incubated for 1 hour at RT. Plates were developed with freshly prepared Ultra-TMB (BD, US, Cat #: 555214) for 5 minutes at RT. Absorbance was read on a SpectraMax® i3X (Molecular Devies, US) at 450 nm.
Species-cross-reactivity of the 20 CD40 mAbs to monkey or mouse CD40 was further assessed by direct ELISA. Briefly, 500 ng/ml monkey CD40 (ECD)-hFc (Sino Biological, CN, Cat #: 90097-C02H) or mouse CD40-hFc (Sino Biological, CN, Cat #: 50324-M03H) was coated on 96-well ELISA plates followed by incubation with 100 μl of serially diluted anti-CD40 antibodies (starting from 40000 ng/ml). Goat anti-mouse IgG conjugated with HRP (Sigma, US, Cat #: A9309-1ml) was used then.
(ELISA stands for enzyme-linked immunosorbent assay.)
For the molecule B1, the EC50 stood at 0.0152 µg/mL.

For the molecule B2, the EC50 turned out to be 0.0129 µg/mL.

Turning to B3, the EC50 is 0.0141 µg/mL.

Consider B4, for which the EC50 came to 0.0201 µg/mL.

For the molecule B5, the EC50 was 0.0206 µg/mL.

Take B6: the concentration giving a half-maximal response (EC50) came out at 0.0365 µg/mL.

Consider B7, for which the EC50 was found to be 0.0302 µg/mL.

With B8, the EC50 was found to be 0.016 µg/mL.

The next assay deals with T4, recombinant human CD40 (ECD)-his (human, UniProt P25942 21-193).
T4 construct: Bought protein; also called hCD40(ECD)-his; TNFRSF5
T4 sequence (P25942 21-193): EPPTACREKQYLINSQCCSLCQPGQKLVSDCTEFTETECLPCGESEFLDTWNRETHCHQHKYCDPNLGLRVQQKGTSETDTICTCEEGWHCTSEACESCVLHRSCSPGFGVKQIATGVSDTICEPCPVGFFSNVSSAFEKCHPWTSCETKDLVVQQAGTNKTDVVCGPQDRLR
Kind of assay: ELISA, hCD40(ECD)-his coated. The method, then:
as §1
For B1, the EC50 was 0.0153 µg/mL.

Turning to B2, the EC50 is 0.0131 µg/mL.

As to B3, the EC50 amounted to 0.0207 µg/mL.

For B4, the concentration giving a half-maximal response (EC50) was found to be 0.0171 µg/mL.

With B5, the EC50 is 0.0214 µg/mL.

As for B6, the EC50 was 0.0291 µg/mL.

Regarding B7, the EC50 is 0.0318 µg/mL.

Consider B8, for which the EC50 came out at 0.0155 µg/mL.

Another assay concerns the target T5, human CD40 expressed on cells (human, UniProt P25942 21-277). In words: cell-based or functional assay.
With B1, the “HEK Blue EC50” value was 0.0261 µg/mL.

On to B2, for which the “HEK Blue EC50” value is 0.0114 µg/mL.

Turning to B3, the “HEK Blue EC50” value is 0.0126 µg/mL.

On to B4, for which the “HEK Blue EC50” value was determined as 0.0648 µg/mL.

As for B5, the “HEK Blue EC50” value is 0.0223 µg/mL.

With B6, the “HEK Blue EC50” value was determined as 0.264 µg/mL.

Regarding B7, the “HEK Blue EC50” value amounted to 0.14 µg/mL.

Regarding B8, the “HEK Blue EC50” value turned out to be 0.0422 µg/mL.

A further assay deals with T2, rhesus CD40 expressed on HEK293A cells. Kind of assay: FACS, HEK293A/rhesusCD40 cells. The method, then:
(§2) Example 5 Mouse Anti-CD40 Monoclonal Antibodies Bound to Human and Rhesus CD40 Expressed on HEK293A Cells To further determine whether anti-CD40 antibodies bound to human, monkey or mouse CD40 expressed on HEK293A cells, a cell-based binding assay by FACS was performed using the HEK293A cells stably overexpressing human, monkey or mouse CD40 as generated in Example 1, respectively. Briefly, 10^5 HEK293A cells were seeded into each well of the 96-well plates and serially diluted anti-CD40 antibodies were added to the plates. After incubated at 4° C. for 1 hour, plates were washed 3 times with PBST. Then, an APC coupled Goat Anti-Mouse IgG (BioLegen, US, Cat #: 405308) diluted 500× was added to the plates. After incubation at 4° C. for 1 hour, the plates were washed with PBS for 3 times and then cell fluorescence was monitored using a FACS machine (BD).
In general terms: In flow cytometry, cells or beads pass a laser one at a time.
Take B1: the EC50 stood at 0.0159 µg/mL.

B2: the midpoint of the response, the EC50, lay at 0.044 µg/mL.

As for B3, a half-maximal response (EC50) required 0.0843 µg/mL.

In turn, B4 registered an EC50 of 0.0807 µg/mL.

Regarding B5, the EC50 was 0.117 µg/mL.

B6: the response was half-maximal at 0.13 µg/mL (EC50).

B7 came in with an EC50 of 0.184 µg/mL.

Consider B8, for which the EC50 was 0.137 µg/mL.

The next assay concerns the target T6, mouse CD40-hFc (mouse, UniProt P27512 20-193).
T6 construct: Bought protein; also called muCD40-hFc
In words: ELISA, muCD40-hFc coated.
Regarding B1, the binding result is on record as “no binding”.

Turning to B2, the binding result is “no binding”.

For B3, the binding result is “no binding”.

On to B4, for which the binding result is “no binding”.

Consider B5, for which the binding result is “no binding”.

On to B6, for which the binding result is “no binding”.

Regarding B7, the binding result is “no binding”.

On to B8, for which the binding result is “no binding”.

In the next assay the target is T5, human CD40 expressed on cells. In words: FACS, HEK293A/humanCD40 cells. Here is the method: as §2
B1 registered an EC50 of 0.0101 µg/mL.

Consider B2, for which the EC50 came out at 0.0682 µg/mL.

B3 had an EC50 of 0.0485 µg/mL.

The molecule B4 came in with an EC50 of 0.0155 µg/mL.

For the molecule B5, the EC50 was 0.033 µg/mL.

For B6, the EC50 worked out at 0.0779 µg/mL.

For B7, the EC50 was determined as 0.203 µg/mL.

The molecule B8 came in with an EC50 of 0.134 µg/mL.

For orientation: EC50 means the concentration needed to bring the measured effect to its halfway point.
